These results are taken from patent US20140220634A1 (Janssen / Centocor, published 2014).

Positions count from the first letter of the chain named.

B1: Fab169-31 (Fab, V domains shown)
VH: QVQLVQSGAEVKKPGSSVKVSCKASGGTFSSYAISWVRQAPGQGLEWMGGIIPIFGTANYAQKFQGRVTITADESTSTAYMELSSLRSEDTAVYYCARHLYYMLDYWGQGTLVTVSS
VL: EIVLTQSPATLSLSPGERATLSCRASQSVADWLAWYQQKPGQAPRLLIYDASNRATGIPARFSGSGSGTDFTLTISSLEPEDFAVYYCQQYDGWPITFGQGTKVEIK
notes: Human Fab from a pIX phage library, made in E. coli; kappa light chain; also called CNTO 4093
B2: Fab323-G1 (Fab, V domains shown)
VH: EVQLLESGGGLVQPGGSLRLSCAASGFTFSDYWMSWVRQAPGKGLEWVSGIWGSGSSTYYADSVKGRFTISRDNSKNTLYLQMNSLRAEDTAVYYCAKHWGRGGDLDYWGQGTLVTVSS
VL: B1 VL with A30S, D31S, W32Y, Y91R, D92S, G93N, I96L
notes: Human Fab from a pIX phage library, made in E. coli; kappa light chain (germline L6 scaffold); also called CNTO 3631
B3: Fab551-3 (Fab, V domains shown)
VH: EVQLVQSGAEVKKPGESLKISCKGSGYSFTSYWIGWVRQMPGKGLEWMGIIYPGDSDTRYSPSFQGQVTISADKSISTAYLQWSSLKASDTAMYYCARGLFWFFDYWGQGTLVTVSS
VL: B1 VL with A30D, D31S, Y91F, G93T
notes: Human Fab from a pIX phage library, made in E. coli; kappa light chain
B4: Fab323-G9 (Fab, V domains shown)
VH: EVQLLESGGGLVQPGGSLRLSCAASGFTFSSYWMHWVRQAPGKGLEWVSAISGSGGSTYYADSVKGRFTISRDNSKNTLYLQMNSLRAEDTAVYYCAKYLRWGSYGILDYWGQGTLVTVSS
VL: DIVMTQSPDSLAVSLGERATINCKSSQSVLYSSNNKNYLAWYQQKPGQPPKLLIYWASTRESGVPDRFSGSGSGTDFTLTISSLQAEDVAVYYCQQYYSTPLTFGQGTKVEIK
notes: Human Fab from a pIX phage library, made in E. coli; kappa light chain (germline B3 scaffold); also called VH323-G9/VLB3
B5: Fab169-C2 (Fab, V domains shown)
VH: QVQLVQSGAEVKKPGSSVKVSCKASGGTFSSYAISWVRQAPGQGLEWMGGIIPIFGTANYAQKFQGRVTITADESTSTAYMELSSLRSEDTAVYYCARHWRLNYWGQGTLVTVSS
VL: B1 VL with A30S, D31S, W32Y, Y91R, D92S, G93N, I96L
notes: Human Fab from a pIX phage library, made in E. coli; kappa light chain (germline L6 scaffold); also called VH169-C2/VLL6
B6: Fab169-47 (Fab, V domains shown)
VH: QVQLVQSGAEVKKPGSSVKVSCKASGGTFSSYAISWVRQAPGQGLEWMGGIIPIFGTANYAQKFQGRVTITADESTSTAYMELSSLRSEDTAVYYCARTSPSFDYWGQGTLVTVSS
VL: B1 VL with A30R, W32F, D50Y, Y91G, D92F, G93H, I96F
notes: Human Fab from a pIX phage library, made in E. coli; kappa light chain; also called VH169-47/VL169-47
B7: Fab169-64 (Fab, V domains shown)
VH: QVQLVQSGAEVKKPGSSVKVSCKASGGTFSSYAISWVRQAPGQGLEWMGGIIPIFGTANYAQKFQGRVTITADESTSTAYMELSSLRSEDTAVYYCARNIVGDYLLDYWGQGTLVTVSS
VL: B1 VL with A30D, Y91G, G93T, W94A
notes: Human Fab from a pIX phage library, made in E. coli; kappa light chain; also called VH169-64/VL169-64
B8: Fab169-G11 (Fab, V domains shown)
VH: QVQLVQSGAEVKKPGSSVKVSCKASGGTFSSYAISWVRQAPGQGLEWMGGIIPIFGTANYAQKFQGRVTITADESTSTAYMELSSLRSEDTAVYYCARDGYDIVLGIFDYWGQGTLVTVSS
VL: B1 VL with A30S, D31S, W32Y, Y91R, D92S, G93N, I96L
notes: Human Fab from a pIX phage library, made in E. coli; kappa light chain (germline L6 scaffold); also called VH169-G11/VLL6
B9: Fab 169-76 (Fab, V domains shown)
VH: B6 VH with A33G, I54Y, T99P, S100T, P101N, S102V, F103L
VL: B1 VL with A30R, D31K, W32F, Y91S, D92N, G93N, I96F
notes: Human Fab from a pIX phage library, made in E. coli; kappa light chain (detected with anti-kappa-HRP); also called VH169-76/VL169-76
B10: Fab323-B3 (Fab, V domains shown)
VH: EVQLLESGGGLVQPGGSLRLSCAASGFTFSSYAMSWVRQAPGKGLEWVSAIRYDGSSKYYADSVKGRFTISRDNSKNTLYLQMNSLRAEDTAVYYCAKNLKILDYWGQGTLVTVSS
VL: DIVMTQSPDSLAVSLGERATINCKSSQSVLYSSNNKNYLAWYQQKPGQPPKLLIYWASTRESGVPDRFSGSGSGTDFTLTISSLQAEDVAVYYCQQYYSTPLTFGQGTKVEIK
notes: Human Fab from a pIX phage library, made in E. coli; kappa light chain (germline B3 scaffold); also called VH323-B3/VLB3
B11: Fab169-34 (Fab, V domains shown)
VH: QVQLVQSGAEVKKPGSSVKVSCKASGGTFSSYAISWVRQAPGQGLEWMGGIIPIFGTANYAQKFQGRVTITADESTSTAYMELSSLRSEDTAVYYCAREGPASWDNWALDYWGQGTLVTVSS
VL: B1 VL with A30S, D50Y, Y91S, D92S, G93T, W94A
notes: Human Fab from a pIX phage library, made in E. coli; kappa light chain; also called VH169-34/VL169-34
B12: Fab169-45 (Fab, V domains shown)
VH: B6 VH with T99R, S100L, P101G, S102L
VL: B1 VL with A30D, D31S, W32A, G93R, I96L
notes: Human Fab from a pIX phage library, made in E. coli; kappa light chain; also called VH169-45/VL169-45

One assay deals with T1, human collagen II (human, UniProt P02458 182-1241).
T1 construct: Purified human collagen II (Chondrex #2015), isolated from cartilage; also called huColII; human type II collagen
T1 sequence (P02458 182-1241 limits assumed): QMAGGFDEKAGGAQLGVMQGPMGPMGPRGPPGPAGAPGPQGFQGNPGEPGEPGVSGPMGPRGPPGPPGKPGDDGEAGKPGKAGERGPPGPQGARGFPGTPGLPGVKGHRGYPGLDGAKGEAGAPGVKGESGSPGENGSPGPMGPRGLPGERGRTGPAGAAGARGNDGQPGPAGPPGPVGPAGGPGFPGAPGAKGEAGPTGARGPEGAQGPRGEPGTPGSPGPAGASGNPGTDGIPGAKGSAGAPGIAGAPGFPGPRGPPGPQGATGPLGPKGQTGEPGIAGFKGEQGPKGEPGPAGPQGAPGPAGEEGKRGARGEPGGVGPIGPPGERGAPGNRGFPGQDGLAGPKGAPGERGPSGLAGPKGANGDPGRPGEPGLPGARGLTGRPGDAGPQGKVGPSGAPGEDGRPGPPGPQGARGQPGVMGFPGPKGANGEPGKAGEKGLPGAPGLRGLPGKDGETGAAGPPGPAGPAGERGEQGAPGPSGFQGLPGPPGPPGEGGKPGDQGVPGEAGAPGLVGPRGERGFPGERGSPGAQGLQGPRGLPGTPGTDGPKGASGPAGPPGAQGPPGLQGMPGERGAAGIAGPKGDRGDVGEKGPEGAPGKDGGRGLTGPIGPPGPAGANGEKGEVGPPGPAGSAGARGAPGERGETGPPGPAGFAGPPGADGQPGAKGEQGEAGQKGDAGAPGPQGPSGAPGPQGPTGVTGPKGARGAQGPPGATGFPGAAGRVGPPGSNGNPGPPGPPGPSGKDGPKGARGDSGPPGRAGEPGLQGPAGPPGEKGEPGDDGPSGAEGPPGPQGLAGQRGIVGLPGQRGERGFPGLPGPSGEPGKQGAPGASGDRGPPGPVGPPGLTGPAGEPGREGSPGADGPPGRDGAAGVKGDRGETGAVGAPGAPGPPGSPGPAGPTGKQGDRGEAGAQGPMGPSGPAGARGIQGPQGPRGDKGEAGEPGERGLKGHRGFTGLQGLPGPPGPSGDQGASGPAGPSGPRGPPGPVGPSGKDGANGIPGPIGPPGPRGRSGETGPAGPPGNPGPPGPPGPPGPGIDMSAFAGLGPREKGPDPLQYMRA
Briefly: Biacore binding kinetics.
The molecule B1 gave a dissociation constant Kd of 50 nM.

B2: the Kd amounted to 6 nM.

The target of another assay is T2, rat collagen II (rat, UniProt P05539 114-1173).
T2 construct: Bought collagen preparation
T2 sequence (P05539 114-1173 limits assumed): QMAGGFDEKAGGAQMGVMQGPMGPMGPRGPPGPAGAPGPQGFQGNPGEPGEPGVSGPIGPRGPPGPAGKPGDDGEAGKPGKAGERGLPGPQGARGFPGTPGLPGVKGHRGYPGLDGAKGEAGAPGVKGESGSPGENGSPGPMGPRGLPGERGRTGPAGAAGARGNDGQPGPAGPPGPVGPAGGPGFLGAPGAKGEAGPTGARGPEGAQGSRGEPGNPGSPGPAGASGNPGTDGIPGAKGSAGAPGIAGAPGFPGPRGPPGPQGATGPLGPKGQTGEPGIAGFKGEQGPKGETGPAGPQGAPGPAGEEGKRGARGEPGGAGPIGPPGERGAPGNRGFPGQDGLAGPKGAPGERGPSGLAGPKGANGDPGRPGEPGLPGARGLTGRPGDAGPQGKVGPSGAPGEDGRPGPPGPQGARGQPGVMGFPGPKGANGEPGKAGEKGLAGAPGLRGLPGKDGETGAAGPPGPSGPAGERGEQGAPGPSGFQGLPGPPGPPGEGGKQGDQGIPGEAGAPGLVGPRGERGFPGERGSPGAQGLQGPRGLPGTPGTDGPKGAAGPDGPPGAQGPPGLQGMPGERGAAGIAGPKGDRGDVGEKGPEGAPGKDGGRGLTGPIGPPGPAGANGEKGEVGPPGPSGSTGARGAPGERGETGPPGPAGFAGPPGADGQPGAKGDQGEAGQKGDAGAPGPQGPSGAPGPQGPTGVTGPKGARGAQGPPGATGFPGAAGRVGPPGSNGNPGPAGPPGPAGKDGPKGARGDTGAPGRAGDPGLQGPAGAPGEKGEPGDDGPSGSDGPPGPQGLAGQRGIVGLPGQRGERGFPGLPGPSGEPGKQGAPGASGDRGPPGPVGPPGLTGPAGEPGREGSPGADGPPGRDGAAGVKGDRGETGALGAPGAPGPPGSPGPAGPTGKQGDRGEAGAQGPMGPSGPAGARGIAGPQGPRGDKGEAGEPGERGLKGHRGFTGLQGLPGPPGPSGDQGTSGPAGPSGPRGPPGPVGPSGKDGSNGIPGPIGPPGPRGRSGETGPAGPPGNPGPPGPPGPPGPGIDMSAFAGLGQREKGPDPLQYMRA
Briefly: Biacore binding kinetics.
B1 displayed a Kd of 75 nM. That is a double-digit nanomolar value.

Molecule B2 registered a Kd of 5 nM. This Kd is about 15-fold lower than that of the molecule before.

A further assay addresses T1, human collagen II. The experiment in a line: ELISA, purified Fab 10 ng/ml-10 ug/ml on coated collagen II. The protocol: (§1) Maxisorp ELISA plates (Nunc) were coated with 10 μg/ml human collagen I (Chondrex), human collagen II (Chondrex), rat collagen I (Chondrex), rat collagen II (Chondrex) or with 5 μg/ml human collagen IV (Chemicon) or human collagen V (Chemicon), or with anti-Fd (the Binding Site) at 1 μg/ml, all in PBS, according to manufacturer's instructions. The wells were washed three times in TBST and blocked for one hour with 200 μL 3% milk in TBST. 100 μL of the Fab lysate was added onto the wells of the coated ELISA plates, and incubated 1 hour at room temperature. The wells were washed three times followed by addition of 100 μL of anti-kappa-HRP (Southern Biotech) at 1:5000 in PBS. The plates were incubated at room temperature for one hour, washed three times with TBST, and developed with BM Chemiluminescence ELISA Substrate (Roche Applied Science). The clones that bound to human and rat collagen II without binding to human collagen I, IV or V, or rat collagen I were sequenced and unique clones were further characterized.
EC50 values were obtained for select Fabs using ELISA assay as described above. In the assays, 100 microliters of each Fab was added in a concentration range between 10 ng/ml-10 μg/ml onto the wells.
(In an ELISA, binding on a coated surface is turned into a signal by an enzyme label.)
The molecule B3 showed a 50% effective concentration (EC50) of 0.114 µg/mL.

B1 returned a half-maximal effective concentration (EC50) of 0.113 µg/mL.

As to B2, the concentration giving a half-maximal response (EC50) came out at 0.123 µg/mL.

The target of the next assay is T3, rat collagen I (rat, UniProt P02454 152-1207; P02466 86-1125).
T3 construct: Bought collagen preparation
The experiment in a line: ELISA, plate coated with 10 µg/ml rat collagen I, anti-kappa-HRP, chemiluminescence. Here is the method:
as §1
With B4, the binding result is recorded as “no binding (tested: not given (100 µL Fab lysate))”.

As for B3, the binding result is listed as “no binding (tested: not given (100 µL Fab lysate))”.

On to B5, for which the binding result is reported as “no binding (tested: not given (100 µL Fab lysate))”.

As for B1, the binding result was “no binding (tested: not given (100 µL Fab lysate))”.

Regarding B6, the binding result is “no binding (tested: not given (100 µL Fab lysate))”.

Regarding B7, the binding result is listed as “no binding (tested: not given (100 µL Fab lysate))”.

As to B8, the binding result is recorded as “no binding (tested: not given (100 µL Fab lysate))”.

As to B9, the binding result is “no binding (tested: not given (100 µL Fab lysate))”.

As for B10, the binding result is “no binding (tested: not given (100 µL Fab lysate))”.

In a further assay the target is T4, human collagen I (human, UniProt P02452 162-1218; P08123 80-1119).
T4 construct: Bought collagen preparation
T4 sequence (P02452 162-1218, chain 1 of 2): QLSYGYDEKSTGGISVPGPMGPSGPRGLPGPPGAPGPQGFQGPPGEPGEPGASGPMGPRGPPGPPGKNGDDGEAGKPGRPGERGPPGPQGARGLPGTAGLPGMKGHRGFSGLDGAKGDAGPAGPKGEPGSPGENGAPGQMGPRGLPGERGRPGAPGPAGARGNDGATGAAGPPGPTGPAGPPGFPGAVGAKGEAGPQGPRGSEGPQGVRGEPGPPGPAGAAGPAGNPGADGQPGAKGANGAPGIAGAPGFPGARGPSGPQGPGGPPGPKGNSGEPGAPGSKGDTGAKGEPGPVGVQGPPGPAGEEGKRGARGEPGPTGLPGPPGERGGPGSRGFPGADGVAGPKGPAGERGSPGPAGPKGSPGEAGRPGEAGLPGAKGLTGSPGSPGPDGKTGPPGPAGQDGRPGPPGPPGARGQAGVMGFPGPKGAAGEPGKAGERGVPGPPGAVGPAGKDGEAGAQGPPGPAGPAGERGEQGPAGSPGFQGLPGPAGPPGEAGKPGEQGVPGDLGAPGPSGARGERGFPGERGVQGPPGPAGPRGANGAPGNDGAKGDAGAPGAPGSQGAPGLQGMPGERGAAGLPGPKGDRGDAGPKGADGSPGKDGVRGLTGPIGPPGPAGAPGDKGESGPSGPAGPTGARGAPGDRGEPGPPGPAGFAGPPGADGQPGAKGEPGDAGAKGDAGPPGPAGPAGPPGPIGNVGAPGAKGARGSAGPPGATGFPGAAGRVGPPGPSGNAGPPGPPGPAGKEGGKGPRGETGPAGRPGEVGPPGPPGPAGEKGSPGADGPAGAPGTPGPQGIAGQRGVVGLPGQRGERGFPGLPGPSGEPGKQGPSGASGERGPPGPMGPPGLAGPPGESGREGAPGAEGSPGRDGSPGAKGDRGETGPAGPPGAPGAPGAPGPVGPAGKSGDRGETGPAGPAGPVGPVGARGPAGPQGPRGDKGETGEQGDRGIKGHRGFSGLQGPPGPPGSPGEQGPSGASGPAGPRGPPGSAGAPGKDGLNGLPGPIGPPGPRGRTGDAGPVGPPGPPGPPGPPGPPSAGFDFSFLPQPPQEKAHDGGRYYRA
T4 sequence (P08123 80-1119, chain 2 of 2): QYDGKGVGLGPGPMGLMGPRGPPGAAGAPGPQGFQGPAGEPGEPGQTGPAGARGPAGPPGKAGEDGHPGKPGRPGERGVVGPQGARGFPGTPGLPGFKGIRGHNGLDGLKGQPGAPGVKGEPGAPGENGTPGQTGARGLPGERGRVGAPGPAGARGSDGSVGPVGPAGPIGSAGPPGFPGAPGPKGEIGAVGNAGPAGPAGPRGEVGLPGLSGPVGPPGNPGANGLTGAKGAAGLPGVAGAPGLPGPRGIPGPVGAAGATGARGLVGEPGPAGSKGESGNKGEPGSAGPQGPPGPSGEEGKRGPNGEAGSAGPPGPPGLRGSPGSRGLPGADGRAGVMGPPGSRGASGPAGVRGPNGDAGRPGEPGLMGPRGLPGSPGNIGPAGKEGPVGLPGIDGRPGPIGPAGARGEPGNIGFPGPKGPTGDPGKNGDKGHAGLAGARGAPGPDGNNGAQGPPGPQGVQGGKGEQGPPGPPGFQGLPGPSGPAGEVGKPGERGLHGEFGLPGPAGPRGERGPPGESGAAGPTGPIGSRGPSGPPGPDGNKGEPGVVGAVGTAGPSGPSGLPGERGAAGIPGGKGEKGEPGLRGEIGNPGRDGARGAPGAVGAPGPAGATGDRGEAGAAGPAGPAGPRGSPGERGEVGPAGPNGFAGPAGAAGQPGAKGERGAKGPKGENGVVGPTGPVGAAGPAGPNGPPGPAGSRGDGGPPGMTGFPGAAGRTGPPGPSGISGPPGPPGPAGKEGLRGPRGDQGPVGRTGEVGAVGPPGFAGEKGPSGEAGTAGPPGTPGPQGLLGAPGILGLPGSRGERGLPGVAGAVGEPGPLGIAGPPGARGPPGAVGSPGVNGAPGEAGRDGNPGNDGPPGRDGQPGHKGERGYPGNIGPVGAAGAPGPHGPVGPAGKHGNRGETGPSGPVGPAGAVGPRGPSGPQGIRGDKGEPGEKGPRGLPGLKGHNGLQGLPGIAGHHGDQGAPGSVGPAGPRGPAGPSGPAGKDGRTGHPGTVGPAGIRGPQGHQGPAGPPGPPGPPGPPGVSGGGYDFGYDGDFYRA
The experiment in a line: ELISA, plate coated with 10 µg/ml human collagen I, anti-kappa-HRP, chemiluminescence. The protocol:
as §1
For B4, the binding result is listed as “no binding (tested: not given (100 µL Fab lysate))”.

In the case of B3, the binding result is listed as “no binding (tested: not given (100 µL Fab lysate))”.

Consider B5, for which the binding result is “no binding (tested: not given (100 µL Fab lysate))”.

For the molecule B1, the binding result is recorded as “no binding (tested: not given (100 µL Fab lysate))”.

On to B7, for which the binding result is “no binding (tested: not given (100 µL Fab lysate))”.

Regarding B9, the binding result is recorded as “no binding (tested: not given (100 µL Fab lysate))”.

As to B10, the binding result is “no binding (tested: not given (100 µL Fab lysate))”.

The target in another assay is T2, rat collagen II. Briefly: ELISA, plate coated with 10 µg/ml rat collagen II, 100 µL Fab lysate, anti-kappa-HRP, chemiluminescence. Here is the method:
as §1
B3: the binding result is on record as “binds”.

In the case of B5, the binding result is recorded as “binds”.

Turning to B6, the binding result is “binds”.

Turning to B11, the binding result is recorded as “binds”.

On to B7, for which the binding result is listed as “binds”.

For the molecule B8, the binding result is “binds”.

On to B9, for which the binding result is “binds”.

As for B12, the binding result is given as “binds”.

Another assay has as its target T1, human collagen II. The experiment in a line: ELISA, plate coated with 10 µg/ml human collagen II, 100 µL Fab lysate, anti-kappa-HRP, chemiluminescence. Here is the method:
as §1
With B5, the binding result is given as “binds”.

In the case of B6, the binding result was “binds”.

With B11, the binding result is recorded as “binds”.

Turning to B7, the binding result is “binds”.

Regarding B8, the binding result was “binds”.

For the molecule B9, the binding result is listed as “binds”.

For B12, the binding result is on record as “binds”.

In general, Kd refers to a measure of binding affinity in units of concentration. A lower Kd goes with a tighter complex. A word on the EC50: it is the concentration at which the effect is half-maximal. A lower EC50 goes with higher potency in that assay.
